Columns and labels:
[1] = target: human EPCR on CHO745-EPCR cells (human) (UniProt Q9UNN8); test: flow cytometry on cells; competition: CHO745-EPCR cells coincubated for 30 min with 50 μg/ml (660 nM) or 250 μg/ml (3.3 µM) CIDR domains and 25 μg/ml (446 nM) APC; APC detected by anti-human protein C antibody
[2] = target: recombinant human CD36 (human) (UniProt P16671); test: BLI; Octet Qke; hisCD36 immobilised on Ni-NTA biosensors, CIDR domains in solution; kinetics buffer (PBS, 0.02% Tween-20, 100 μg/ml bovine serum albumin, 0.005% sodium azide); association 600 or 900 s, dissociation 300 to 600 s; 1:1 fit
[3] = target: recombinant human CD36 (human) (UniProt P16671); test: BLI; Octet Qke; hisCD36 immobilised on Ni-NTA biosensors, CIDR domain in kinetics buffer (PBS, 0.02% Tween-20, 100 ug/ml BSA, 0.005% sodium azide); association 600 or 900 s, dissociation 300 to 600 s; double-reference subtracted data fitted to a 1:1 binding model
[4] = target: recombinant human endothelial protein C receptor (human) (UniProt Q9UNN8); test: BLI; Octet Qke; EPCR on the biosensor, CIDR domain in solution; protocol as reported previously (ref. 40); double-reference subtracted data fitted to a 1:1 binding model
Chain of recombinant human endothelial protein C receptor (human) (Q9UNN8 18-238): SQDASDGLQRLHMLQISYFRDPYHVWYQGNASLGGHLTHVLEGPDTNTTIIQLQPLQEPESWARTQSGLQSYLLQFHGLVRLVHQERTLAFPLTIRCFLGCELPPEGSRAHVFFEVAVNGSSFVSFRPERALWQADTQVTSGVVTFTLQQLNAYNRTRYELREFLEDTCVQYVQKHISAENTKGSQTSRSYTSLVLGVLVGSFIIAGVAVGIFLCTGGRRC

Chain of recombinant human CD36 (human) (P16671 whole entry, the tested form may be a part): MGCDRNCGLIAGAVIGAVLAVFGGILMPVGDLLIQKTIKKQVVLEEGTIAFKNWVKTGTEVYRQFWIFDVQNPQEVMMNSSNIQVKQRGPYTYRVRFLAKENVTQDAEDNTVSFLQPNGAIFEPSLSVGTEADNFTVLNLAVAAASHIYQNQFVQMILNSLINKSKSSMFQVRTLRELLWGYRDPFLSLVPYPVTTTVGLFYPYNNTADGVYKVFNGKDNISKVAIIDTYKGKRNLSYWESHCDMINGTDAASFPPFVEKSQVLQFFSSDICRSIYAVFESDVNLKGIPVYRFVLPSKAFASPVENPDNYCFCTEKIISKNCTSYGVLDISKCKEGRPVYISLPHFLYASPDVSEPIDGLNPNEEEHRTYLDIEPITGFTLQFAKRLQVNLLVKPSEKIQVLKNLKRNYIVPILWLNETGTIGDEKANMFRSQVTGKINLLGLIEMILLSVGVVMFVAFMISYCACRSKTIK
Chain of human EPCR on CHO745-EPCR cells (human) (Q9UNN8 18-238): as the sequence (Q9UNN8 18-238) above

P. falciparum var07 CIDRα1.4 (domain or fragment)
percent reduction of APC binding at 50 μg/ml CIDR [1]: 85%
percent reduction of APC binding at 250 μg/ml CIDR [1]: 98%

P. falciparum var14 CIDRα5 (domain or fragment)
Kd [2]: 3.2 nM
koff [3]: 2.99e-05 s⁻¹
kon [3]: 9280 M⁻¹ s⁻¹

P. reichenowi var71 CIDRα1.4 (domain or fragment)
koff [4]: 0.000268 s⁻¹
kon [4]: 11800 M⁻¹ s⁻¹
